± gives the standard deviation of the averaged measurements.
B1: library; a variant is named by its letters at N, in order (parent)
chain: GAGACCGCAACTGAAAAGTTGTGGNNNNNATAGTGAGTCGCTGCCTGCAAAGACACAACT

Variants of: B1
Test: ligation selection enrichment (abundance after / before one-round selection) (fold); higher = more template-directed ligation activity
Settings: with T7Psub CACGGAUGCUAAUACGACUCACUAUA; MgCl2 25 mM; 42 °C; 4 h; pH 8.5
In short: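 In each of two independent experiments, 6 μM RNA substrate was reacted for 4 h at 42 °C with 0.75 μM of a T7-transcribed RNA ligase library randomized at five core positions, in buffer containing 50 mM EPPS pH 8.5 and 25 mM MgCl2. Only reads scoring ≥30 in quality at all randomized positions were counted after MiSeq sequencing. Each enrichment value is the ratio of abundance after ligation to abundance before ligation.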

Going from GTATG to GTATT, the ligation selection enrichment falls from 1.4 ± 0.24 to 0.236 ± 0.12.

Going from GTATA to GTATC, the ligation selection enrichment falls from 0.2557 ± 0.00086 to 0.167 ± 0.036.

Compared with CGGTC, CGGTT is higher in ligation selection enrichment: 0.1 ± 0.011 for the first, 0.202 ± 0.042 for the second.

Going from CGGTG to CGGTA, the ligation selection enrichment falls from 0.24 ± 0.069 to 0.133 ± 0.028.

First: ATGCG
Second: ATGCC
The ligation selection enrichment of the first is higher: 1.74 ± 0.19 for the first, 0.176 ± 0.0063 for the second.

ATGCT and ATGCA are within error of each other in ligation selection enrichment: 0.505 ± 0.074 for the first, 0.419 ± 0.021 for the second.

First: TTAGC
Second: TTAGT
The ligation selection enrichment of the first is lower: 0.139 ± 0.035 for the first, 0.265 ± 0.074 for the second.

TTAGA and TTAGG are within error of each other in ligation selection enrichment: 0.304 ± 0.054 for the first, 0.306 ± 0.061 for the second.

GGTGT and GGTGG are within error of each other in ligation selection enrichment: 0.181 ± 0.16 for the first, 0.374 ± 0.12 for the second.

First: GGTGA
Second: GGTGC
The ligation selection enrichment of the first is higher: 0.641 ± 0.064 for the first, 0.226 ± 0.03 for the second.

GGTAC and GGTAA are within error of each other in ligation selection enrichment: 0.479 ± 0.053 for the first, 0.348 ± 0.1 for the second.

Compared with GGTAT, GGTAG is lower in ligation selection enrichment: 5.34 ± 1.2 for the first, 1.05 ± 0.028 for the second.

Going from GTTAA to GTTAC, the ligation selection enrichment falls from 0.876 ± 0.12 to 0.3144 ± 0.0017.

Going from GTTAG to AGGGA, the ligation selection enrichment falls from 0.728 ± 0.01 to 0.322 ± 0.059.

Going from AGGGG to AGGGC, the ligation selection enrichment falls from 0.251 ± 0.027 to 0.109 ± 0.0024.

AGGGT and CTCCG are within error of each other in ligation selection enrichment: 0.289 ± 0.097 for the first, 0.347 ± 0.032 for the second.

Compared with CTCCT, CTCCC is lower in ligation selection enrichment: 0.503 ± 0.14 for the first, 0.0937 ± 0.042 for the second.

First: CTCCA
Second: TGGCG
The ligation selection enrichment of the first is lower: 0.1489 ± 0.00039 for the first, 0.345 ± 0.019 for the second.

First: TGGCA
Second: TGGCT
The ligation selection enrichment of the first is lower: 0.252 ± 0.025 for the first, 0.75 ± 0.2 for the second.

First: TGGCC
Second: AGTTC
The ligation selection enrichment of the first is higher: 0.286 ± 0.041 for the first, 0.176 ± 0.014 for the second.

First: AGTTA
Second: AGTTG
The ligation selection enrichment of the first is lower: 0.434 ± 0.065 for the first, 3.78 ± 0.71 for the second.

Compared with AGTTT, ATGAT is higher in ligation selection enrichment: 0.427 ± 0.11 for the first, 34.6 ± 8.1 for the second.

First: ATGAC
Second: ATGAG
The ligation selection enrichment of the first is higher: 1.69 ± 0.044 for the first, 0.834 ± 0.057 for the second.

Compared with ATGAA, AGTGT is lower in ligation selection enrichment: 0.823 ± 0.12 for the first, 0.133 ± 0.035 for the second.

Going from AGTGG to AGTGC, the ligation selection enrichment falls from 0.414 ± 0.077 to 0.186 ± 0.0091.

AGTGA and GTAGA are within error of each other in ligation selection enrichment: 0.842 ± 0.093 for the first, 1.05 ± 0.13 for the second.

GTAGT and GTAGC are within error of each other in ligation selection enrichment: 0.166 ± 0.037 for the first, 0.191 ± 0.035 for the second.

First: GTAGG
Second: AGCTT
The ligation selection enrichment of the first is higher: 0.422 ± 0.043 for the first, 0.149 ± 0.13 for the second.

Compared with ATCCT, ATCCA is lower in ligation selection enrichment: 0.468 ± 0.17 for the first, 0.148 ± 0.027 for the second.

First: ATCCC
Second: ATCCG
The ligation selection enrichment of the first is lower: 0.168 ± 0.049 for the first, 0.765 ± 0.036 for the second.

Going from CTGTT to CTGTC, the ligation selection enrichment falls from 0.3 ± 0.027 to 0.18 ± 0.017.

CTGTA and CTGTG are within error of each other in ligation selection enrichment: 0.136 ± 0.0097 for the first, 0.195 ± 0.072 for the second.

TGGGT and TGGGA are within error of each other in ligation selection enrichment: 0.417 ± 0.23 for the first, 0.263 ± 0.038 for the second.

TGGGG and TGGGC are within error of each other in ligation selection enrichment: 0.228 ± 0.049 for the first, 0.171 ± 0.022 for the second.

First: AGGTT
Second: AGGTA
The ligation selection enrichment of the first is lower: 0.245 ± 0.075 for the first, 0.41 ± 0.019 for the second.

Compared with AGGTG, AGGTC is lower in ligation selection enrichment: 0.279 ± 0.036 for the first, 0.196 ± 0.011 for the second.

Going from TGTAC to TGTAT, the ligation selection enrichment rises from 0.277 ± 0.037 to 1.97 ± 0.21.

TGTAG and TGTAA are within error of each other in ligation selection enrichment: 0.307 ± 0.076 for the first, 0.267 ± 0.021 for the second.

Going from GTCAT to GTCAA, the ligation selection enrichment rises from 0.373 ± 0.0027 to 0.766 ± 0.16.

Going from GTCAG to GTCAC, the ligation selection enrichment falls from 0.628 ± 0.038 to 0.221 ± 0.0092.

Compared with GGGGG, GGGGC is lower in ligation selection enrichment: 0.405 ± 0.028 for the first, 0.21 ± 0.0028 for the second.

Going from GGGGT to GGGGA, the ligation selection enrichment rises from 0.345 ± 0.11 to 0.608 ± 0.042.

First: CTGCT
Second: CTGCC
The ligation selection enrichment of the first is higher: 0.833 ± 0.12 for the first, 0.138 ± 0.05 for the second.

Going from CTGCG to CTGCA, the ligation selection enrichment falls from 0.5 ± 0.22 to 0.147 ± 0.0049.

Going from TTCCA to TTCCT, the ligation selection enrichment rises from 0.142 ± 0.0024 to 0.443 ± 0.21.

Compared with TTCCC, TTCCG is higher in ligation selection enrichment: 0.175 ± 0.022 for the first, 0.813 ± 0.068 for the second.

First: GTGTA
Second: GTGTC
The ligation selection enrichment of the first is higher: 0.265 ± 0.083 for the first, 0.144 ± 0.015 for the second.

Going from GTGTT to GTGTG, the ligation selection enrichment rises from 0.277 ± 0.011 to 0.75 ± 0.1.

ATCGT and ATCGC are within error of each other in ligation selection enrichment: 0.723 ± 0.28 for the first, 0.48 ± 0.024 for the second.

First: ATCGA
Second: ATCGG
The ligation selection enrichment of the first is higher: 3.45 ± 0.064 for the first, 0.801 ± 0.021 for the second.

Compared with AGGAC, AGGAG is lower in ligation selection enrichment: 14.4 ± 2.2 for the first, 0.806 ± 0.1 for the second.

First: AGGAT
Second: AGGAA
The ligation selection enrichment of the first is higher: 95.7 ± 0.79 for the first, 2.74 ± 0.034 for the second.

Compared with AGTCG, AGTCC is lower in ligation selection enrichment: 3.1 ± 0.045 for the first, 0.157 ± 0.034 for the second.

First: AGTCA
Second: AGTCT
The ligation selection enrichment of the first is higher: 0.891 ± 0.1 for the first, 0.506 ± 0.043 for the second.

Compared with TGGTC, TGGTG is higher in ligation selection enrichment: 0.198 ± 0.019 for the first, 0.288 ± 0.042 for the second.

Going from TGGTA to TGGTT, the ligation selection enrichment rises from 0.325 ± 0.017 to 0.438 ± 0.044.

First: GGGAT
Second: GGGAC
The ligation selection enrichment of the first is higher: 167 ± 32 for the first, 30.7 ± 5.3 for the second.

Compared with GGGAA, GGGAG is lower in ligation selection enrichment: 6.049 ± 0.019 for the first, 1.05 ± 0.051 for the second.

Going from TGTGG to TGTGC, the ligation selection enrichment falls from 0.196 ± 0.025 to 0.151 ± 0.015.

Going from TGTGA to TGTGT, the ligation selection enrichment falls from 0.629 ± 0.018 to 0.102 ± 0.061.

Going from CGTTC to CGTTA, the ligation selection enrichment rises from 0.124 ± 0.0021 to 0.263 ± 0.01.

First: CGTTG
Second: CGTTT
The ligation selection enrichment of the first is higher: 2.11 ± 0.56 for the first, 0.379 ± 0.0055 for the second.

Compared with ATATG, ATATT is lower in ligation selection enrichment: 1.01 ± 0.061 for the first, 0.203 ± 0.037 for the second.

ATATA and ATATC are within error of each other in ligation selection enrichment: 0.239 ± 0.089 for the first, 0.177 ± 0.029 for the second.

Compared with GTGCG, GTGCA is lower in ligation selection enrichment: 2.12 ± 0.13 for the first, 0.307 ± 0.043 for the second.

First: GTGCT
Second: GTGCC
The ligation selection enrichment of the first is higher: 0.813 ± 0.23 for the first, 0.209 ± 0.022 for the second.

Compared with TTATG, TTATC is lower in ligation selection enrichment: 0.377 ± 0.02 for the first, 0.152 ± 0.02 for the second.

Compared with TTATT, TTATA is higher in ligation selection enrichment: 0.206 ± 0.071 for the first, 0.465 ± 0.12 for the second.

CTCGC and CTCGG are within error of each other in ligation selection enrichment: 0.141 ± 0.0066 for the first, 0.161 ± 0.036 for the second.

Compared with CTCGA, CTCGT is lower in ligation selection enrichment: 0.501 ± 0.012 for the first, 0.216 ± 0.13 for the second.

Compared with ATCTG, ATCTC is lower in ligation selection enrichment: 0.796 ± 0.041 for the first, 0.078 ± 0.025 for the second.

Going from ATCTA to ATCTT, the ligation selection enrichment falls from 0.203 ± 0.01 to 0.102 ± 0.083.

Going from CTAAT to CTAAA, the ligation selection enrichment falls from 1.29 ± 0.25 to 0.114 ± 0.017.

Compared with CTAAC, CTAAG is higher in ligation selection enrichment: 0.146 ± 0.054 for the first, 0.314 ± 0.043 for the second.

AGTAC and AGTAA are within error of each other in ligation selection enrichment: 0.492 ± 0.1 for the first, 0.427 ± 0.042 for the second.

First: AGTAG
Second: AGTAT
The ligation selection enrichment of the first is lower: 1.697 ± 0.012 for the first, 6.55 ± 1.2 for the second.

Compared with ATGGG, ATGGC is lower in ligation selection enrichment: 0.265 ± 0.05 for the first, 0.128 ± 0.0069 for the second.

First: ATGGA
Second: ATGGT
The ligation selection enrichment of the first is higher: 0.662 ± 0.029 for the first, 0.181 ± 0.092 for the second.

Going from GTACG to GTACT, the ligation selection enrichment falls from 1.47 ± 0.055 to 0.785 ± 0.17.

Compared with GTACC, GTACA is higher in ligation selection enrichment: 0.165 ± 0.011 for the first, 0.288 ± 0.094 for the second.

Compared with CGGAT, CGGAG is lower in ligation selection enrichment: 57.6 ± 1.5 for the first, 0.459 ± 0.021 for the second.

Compared with CGGAC, CGGAA is lower in ligation selection enrichment: 3.77 ± 0.4 for the first, 1.02 ± 0.075 for the second.

Going from TTAAA to TTAAT, the ligation selection enrichment rises from 0.329 ± 0.06 to 7.9 ± 1.6.

In the case of TTAAG, the ligation selection enrichment is reported as 0.69 ± 0.15.

Reference: the supplement of paper PMC10219994
